Article PMC5443830

Molecular target: Cry1AcMod activated toxin (Bacillus thuringiensis) (UniProt P05068)
Experiment: SDS-PAGE and western blot of the 200 kDa oligomer band

## Cry1AcMod activated toxin (from UniProt P05068 1-1178) (domain or fragment)
  optical density of the 200 kDa oligomer band with BBMV from the resistant strain relative to BBMV from the susceptible strain (=100%): 100%
